Experimental data reported in the Human Domainome abundance scans (Beltran et al. 2025).
± gives the uncertainty stated by the source.

B1: Tesmin, residues 368 to 403; numbered along this chain, Q9Y4I5 (parent)
chain: KGCNCRRSGCLKNYCECYEAQIMCSSICKCIGCKNY

Variants of: B1
Assay: abundance fitness (aPCA) (normalised: wild type 0, dead -1); higher = more abundant; growth selection in yeast, the domain comes from the species named
Details: Homo sapiens

Row | Variant | abundance fitness
1 | CGCNCRRSGCLKNYCECYEAQIMCSSICKCIGCKNY [K1C] | -0.775 ± 0.34
2 | DGCNCRRSGCLKNYCECYEAQIMCSSICKCIGCKNY [K1D] | -0.995 ± 0.17
3 | EGCNCRRSGCLKNYCECYEAQIMCSSICKCIGCKNY [K1E] | -0.136 ± 0.086
4 | GGCNCRRSGCLKNYCECYEAQIMCSSICKCIGCKNY [K1G] | -0.573 ± 0.2
5 | LGCNCRRSGCLKNYCECYEAQIMCSSICKCIGCKNY [K1L] | -0.211 ± 0.21
6 | SGCNCRRSGCLKNYCECYEAQIMCSSICKCIGCKNY [K1S] | -0.401 ± 0.22
7 | VGCNCRRSGCLKNYCECYEAQIMCSSICKCIGCKNY [K1V] | -0.825 ± 0.28
8 | KACNCRRSGCLKNYCECYEAQIMCSSICKCIGCKNY [G2A] | -0.133 ± 0.1
9 | KCCNCRRSGCLKNYCECYEAQIMCSSICKCIGCKNY [G2C] | -0.448 ± 0.35
10 | KECNCRRSGCLKNYCECYEAQIMCSSICKCIGCKNY [G2E] | 0.017 ± 0.096
11 | KKCNCRRSGCLKNYCECYEAQIMCSSICKCIGCKNY [G2K] | -0.565 ± 0.13
12 | KLCNCRRSGCLKNYCECYEAQIMCSSICKCIGCKNY [G2L] | -0.465 ± 0.18
13 | KMCNCRRSGCLKNYCECYEAQIMCSSICKCIGCKNY [G2M] | -0.189 ± 0.29
14 | KPCNCRRSGCLKNYCECYEAQIMCSSICKCIGCKNY [G2P] | 0.07 ± 0.31
15 | KQCNCRRSGCLKNYCECYEAQIMCSSICKCIGCKNY [G2Q] | -0.17 ± 0.11
16 | KRCNCRRSGCLKNYCECYEAQIMCSSICKCIGCKNY [G2R] | -0.447 ± 0.084
17 | KSCNCRRSGCLKNYCECYEAQIMCSSICKCIGCKNY [G2S] | -0.194 ± 0.082
18 | KTCNCRRSGCLKNYCECYEAQIMCSSICKCIGCKNY [G2T] | -0.439 ± 0.2
19 | KVCNCRRSGCLKNYCECYEAQIMCSSICKCIGCKNY [G2V] | -0.209 ± 0.11
20 | KWCNCRRSGCLKNYCECYEAQIMCSSICKCIGCKNY [G2W] | -0.674 ± 0.14
21 | KGANCRRSGCLKNYCECYEAQIMCSSICKCIGCKNY [C3A] | -0.33 ± 0.073
22 | KGDNCRRSGCLKNYCECYEAQIMCSSICKCIGCKNY [C3D] | -0.262 ± 0.14
23 | KGFNCRRSGCLKNYCECYEAQIMCSSICKCIGCKNY [C3F] | -0.567 ± 0.24

Row | Variant | abundance fitness
24 | KGGNCRRSGCLKNYCECYEAQIMCSSICKCIGCKNY [C3G] | -0.236 ± 0.07
25 | KGHNCRRSGCLKNYCECYEAQIMCSSICKCIGCKNY [C3H] | -0.363 ± 0.21
26 | KGINCRRSGCLKNYCECYEAQIMCSSICKCIGCKNY [C3I] | -0.51 ± 0.23
27 | KGKNCRRSGCLKNYCECYEAQIMCSSICKCIGCKNY [C3K] | -0.115 ± 0.11
28 | KGLNCRRSGCLKNYCECYEAQIMCSSICKCIGCKNY [C3L] | -0.677 ± 0.081
29 | KGMNCRRSGCLKNYCECYEAQIMCSSICKCIGCKNY [C3M] | -0.194 ± 0.1
30 | KGPNCRRSGCLKNYCECYEAQIMCSSICKCIGCKNY [C3P] | -0.577 ± 0.11
31 | KGQNCRRSGCLKNYCECYEAQIMCSSICKCIGCKNY [C3Q] | -0.462 ± 0.085
32 | KGSNCRRSGCLKNYCECYEAQIMCSSICKCIGCKNY [C3S] | -0.702 ± 0.11
33 | KGTNCRRSGCLKNYCECYEAQIMCSSICKCIGCKNY [C3T] | -0.322 ± 0.082
34 | KGWNCRRSGCLKNYCECYEAQIMCSSICKCIGCKNY [C3W] | -0.624 ± 0.091
35 | KGYNCRRSGCLKNYCECYEAQIMCSSICKCIGCKNY [C3Y] | -0.056 ± 0.27
36 | KGCACRRSGCLKNYCECYEAQIMCSSICKCIGCKNY [N4A] | -0.162 ± 0.078
37 | KGCCCRRSGCLKNYCECYEAQIMCSSICKCIGCKNY [N4C] | -0.183 ± 0.1
38 | KGCDCRRSGCLKNYCECYEAQIMCSSICKCIGCKNY [N4D] | 0.22 ± 0.11
39 | KGCECRRSGCLKNYCECYEAQIMCSSICKCIGCKNY [N4E] | -0.056 ± 0.082
40 | KGCGCRRSGCLKNYCECYEAQIMCSSICKCIGCKNY [N4G] | -0.103 ± 0.07
41 | KGCHCRRSGCLKNYCECYEAQIMCSSICKCIGCKNY [N4H] | -0.199 ± 0.14
42 | KGCICRRSGCLKNYCECYEAQIMCSSICKCIGCKNY [N4I] | -0.31 ± 0.2
43 | KGCKCRRSGCLKNYCECYEAQIMCSSICKCIGCKNY [N4K] | -0.314 ± 0.15
44 | KGCLCRRSGCLKNYCECYEAQIMCSSICKCIGCKNY [N4L] | -0.207 ± 0.077
45 | KGCMCRRSGCLKNYCECYEAQIMCSSICKCIGCKNY [N4M] | -0.011 ± 0.083
46 | KGCPCRRSGCLKNYCECYEAQIMCSSICKCIGCKNY [N4P] | -0.033 ± 0.083

Row | Variant | abundance fitness
47 | KGCRCRRSGCLKNYCECYEAQIMCSSICKCIGCKNY [N4R] | -0.16 ± 0.08
48 | KGCSCRRSGCLKNYCECYEAQIMCSSICKCIGCKNY [N4S] | -0.103 ± 0.093
49 | KGCTCRRSGCLKNYCECYEAQIMCSSICKCIGCKNY [N4T] | -0.186 ± 0.094
50 | KGCVCRRSGCLKNYCECYEAQIMCSSICKCIGCKNY [N4V] | -1.13 ± 0.1
51 | KGCYCRRSGCLKNYCECYEAQIMCSSICKCIGCKNY [N4Y] | -0.226 ± 0.092
52 | KGCNARRSGCLKNYCECYEAQIMCSSICKCIGCKNY [C5A] | -0.414 ± 0.075
53 | KGCNDRRSGCLKNYCECYEAQIMCSSICKCIGCKNY [C5D] | -0.794 ± 0.24
54 | KGCNERRSGCLKNYCECYEAQIMCSSICKCIGCKNY [C5E] | -0.176 ± 0.08
55 | KGCNGRRSGCLKNYCECYEAQIMCSSICKCIGCKNY [C5G] | -0.65 ± 0.069
56 | KGCNHRRSGCLKNYCECYEAQIMCSSICKCIGCKNY [C5H] | 0.066 ± 0.2
57 | KGCNIRRSGCLKNYCECYEAQIMCSSICKCIGCKNY [C5I] | -0.936 ± 0.46
58 | KGCNLRRSGCLKNYCECYEAQIMCSSICKCIGCKNY [C5L] | -0.455 ± 0.1
59 | KGCNMRRSGCLKNYCECYEAQIMCSSICKCIGCKNY [C5M] | -0.286 ± 0.11
60 | KGCNNRRSGCLKNYCECYEAQIMCSSICKCIGCKNY [C5N] | -0.478 ± 0.21
61 | KGCNPRRSGCLKNYCECYEAQIMCSSICKCIGCKNY [C5P] | -0.296 ± 0.1
62 | KGCNQRRSGCLKNYCECYEAQIMCSSICKCIGCKNY [C5Q] | -0.346 ± 0.095
63 | KGCNSRRSGCLKNYCECYEAQIMCSSICKCIGCKNY [C5S] | -0.342 ± 0.08
64 | KGCNTRRSGCLKNYCECYEAQIMCSSICKCIGCKNY [C5T] | -0.431 ± 0.094
65 | KGCNVRRSGCLKNYCECYEAQIMCSSICKCIGCKNY [C5V] | -1.24 ± 0.083
66 | KGCNWRRSGCLKNYCECYEAQIMCSSICKCIGCKNY [C5W] | -0.523 ± 0.079
67 | KGCNCARSGCLKNYCECYEAQIMCSSICKCIGCKNY [R6A] | 0.33 ± 0.071
68 | KGCNCCRSGCLKNYCECYEAQIMCSSICKCIGCKNY [R6C] | 0.036 ± 0.092
